Measured values: publication PMC12834914, “The biochemical dynamics of the glycogen phosphatase laforin directly impact brain metabolism” (The Journal of Biological Chemistry, 2025)

T1: laforin C266S (LexA fusion) (human, UniProt O95278 1-331, C266S)
T1 construct: laforin, glycogen phosphatase encoded by EPM2A, catalytic cysteine mutated to serine; in mouse laforin the same change is C265S; also called LCS; laforin C/S; source: yeast two-hybrid fusion (S. cerevisiae, pEG202)
T1 sequence (looked up): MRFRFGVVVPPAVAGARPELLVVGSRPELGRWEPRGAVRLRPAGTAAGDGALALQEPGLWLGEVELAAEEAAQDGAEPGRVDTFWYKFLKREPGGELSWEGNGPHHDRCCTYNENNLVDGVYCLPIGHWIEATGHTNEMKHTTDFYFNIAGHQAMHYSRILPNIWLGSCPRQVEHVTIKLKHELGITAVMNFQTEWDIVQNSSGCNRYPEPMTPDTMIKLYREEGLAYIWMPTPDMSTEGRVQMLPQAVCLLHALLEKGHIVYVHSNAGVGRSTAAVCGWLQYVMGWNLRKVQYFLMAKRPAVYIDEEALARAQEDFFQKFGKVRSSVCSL


Target: T1, laforin C266S (LexA fusion)
Experiment: two-hybrid; LexA-laforin (pEG202) with Gal4 activation domain-malin or -PTG (pACT2) in S. cerevisiae; beta-galactosidase activity in yeast cell extract, in Miller Units
Details: partners not purified

fold signal against WT laforin | Binder
~2 fold | protein targeting to glycogen (Gal4 activation domain fusion) (natural protein, UniProt Q9UQK1 1-317, looked up, protein targeting to glycogen (PTG); also called PTG; source: yeast two-hybrid fusion (S. cerevisiae, pACT2)) MSCTRMIQVLDPRPLTSSVMPVDVAMRLCLAHSPPVKSFLGPYDEFQRRHFVNKLKPLKSCLNIKHKAKSQNDWKCSHNQAKKRVVFADSKGLSLTAIHVFSDLPEEPAWDLQFDLLDLNDISSALKHHEEKNLILDFPQPSTDYLSFRSHFQKNFVCLENCSLQERTVTGTVKVKNVSFEKKVQIRITFDSWKNYTDVDCVYMKNVYGGTDSDTFSFAIDLPPVIPTEQKIEFCISYHANGQVFWDNNDGQNYRIVHVQWKPDGVQTQMAPQDCAFHQTSPKTELESTIFGSPRLASGLFPEWQSWGRMENLASYR
~2 fold | malin (Gal4 activation domain fusion) (natural protein, UniProt Q6VVB1 1-395, looked up, malin; source: yeast two-hybrid fusion (S. cerevisiae, pACT2)) MAAEASESGPALHELMREAEISLLECKVCFEKFGHRQQRRPRNLSCGHVVCLACVAALAHPRTLALECPFCRRACRGCDTSDCLPVLHLIELLGSALRQSPAAHRAAPSAPGALTCHHTFGGWGTLVNPTGLALCPKTGRVVVVHDGRRRVKIFDSGGGCAHQFGEKGDAAQDIRYPVDVTITNDCHVVVTDAGDRSIKVFDFFGQIKLVIGGQFSLPWGVETTPQNGIVVTDAEAGSLHLLDVDFAEGVLRRTERLQAHLCNPRGVAVSWLTGAIAVLEHPLALGTGVCSTRVKVFSSSMQLVGQVDTFGLSLYFPSKITASAVTFDHQGNVIVADTSGPAILCLGKPEEFPVPKPMVTHGLSHPVALTFTKENSLLVLDTASHSIKVYKVDWG
